Patent publication US20200148733A1 (Pieris, published 2020)

Key:
human IL-23 [1] = molecular target: T1, human IL-23 (human, UniProt Q9NPF7 20-189; P29460 23-328); experiment: SPR (Biacore T200), IL-23 amine-coupled to CM5 chip, mutein in solution, 25 C, 1:1 binding model
T1 construct: Heterodimer of p19 and p40; in the proliferation assays CAT # HZ-1254, HumanZyme; also called hIL-23; hIL23
T1 sequence (looked up) 1: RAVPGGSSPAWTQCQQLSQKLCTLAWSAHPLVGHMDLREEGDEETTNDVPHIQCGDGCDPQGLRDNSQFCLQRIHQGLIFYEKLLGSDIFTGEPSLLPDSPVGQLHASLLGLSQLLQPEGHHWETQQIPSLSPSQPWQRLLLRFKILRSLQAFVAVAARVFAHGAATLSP
T1 sequence (looked up) 2: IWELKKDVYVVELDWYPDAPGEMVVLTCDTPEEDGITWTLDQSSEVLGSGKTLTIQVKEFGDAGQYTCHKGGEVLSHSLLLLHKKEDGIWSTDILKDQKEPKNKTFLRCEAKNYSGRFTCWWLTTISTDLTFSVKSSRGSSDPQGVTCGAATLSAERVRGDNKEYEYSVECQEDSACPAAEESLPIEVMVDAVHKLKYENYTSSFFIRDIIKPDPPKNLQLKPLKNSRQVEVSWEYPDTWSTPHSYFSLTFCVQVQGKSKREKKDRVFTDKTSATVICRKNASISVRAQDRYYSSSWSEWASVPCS
Experimental: (§1) Residual activated groups were quenched with ethanolamine. The reference channels were treated with EDC/NHS following ethanolamine (blank immobilization).
(§2) The binding assay was carried out with a contact time of 300 s, dissociation time of 1200 s and applying a flow rate of 30 μL/min. All measurements were performed at 25° C. […] Prior to the protein measurements three startup cycles were performed for conditioning purposes. Data were evaluated with Biacore T200 Evaluation software (V 1.0). Double referencing was used. The 1:1 Binding model was used to fit the raw data.

human IL-23 [2] = molecular target: T1, human IL-23; experiment: SPR (Biacore T200), hIL-23 immobilized on CM5 chip, mutein injected, fit 1:1 Binding
Experimental: as §1, §2

mouse IL-23 [3] = molecular target: T2, mouse IL-23 (mouse, UniProt Q9EQ14 22-196; P43432 23-335); experiment: solution competition ELISA (FIG. 5B)
T2 construct: also called mIL-23
T2 sequence (looked up) 1: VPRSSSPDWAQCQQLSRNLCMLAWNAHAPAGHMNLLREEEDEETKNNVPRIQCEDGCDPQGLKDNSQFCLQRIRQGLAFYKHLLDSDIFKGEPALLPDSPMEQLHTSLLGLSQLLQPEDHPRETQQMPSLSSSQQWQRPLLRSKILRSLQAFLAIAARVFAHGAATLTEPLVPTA
T2 sequence (looked up) 2: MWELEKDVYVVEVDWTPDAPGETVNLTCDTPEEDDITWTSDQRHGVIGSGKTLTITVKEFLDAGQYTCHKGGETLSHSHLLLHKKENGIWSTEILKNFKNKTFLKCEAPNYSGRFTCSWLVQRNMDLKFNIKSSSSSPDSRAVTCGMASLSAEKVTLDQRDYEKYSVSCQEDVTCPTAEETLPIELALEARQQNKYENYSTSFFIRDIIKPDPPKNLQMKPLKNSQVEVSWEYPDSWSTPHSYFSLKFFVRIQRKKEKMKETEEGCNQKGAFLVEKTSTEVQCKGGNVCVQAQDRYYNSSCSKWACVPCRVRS
Experimental: (§3) In the following detailed experimental protocol, incubation and washing steps were performed as described above in the competition ELISA protocol. A 384-well plate suitable for fluorescence measurements (Greiner FLUOTRAC™ 600, black flat bottom, high-binding) was coated with 20 μl of Neutravidin at a concentration of 5 μg/ml in PBS over night at 4° C. After washing, the Neutravidin-coated wells were blocked with 100 μl PBS-T/BSA for 1h at room temperature.

human IL-23 [4] = molecular target: T1, human IL-23; experiment: Surface Plasmon Resonance, legend of FIG. 6B (rounded value of the measurement of the example)
Experimental: as §1, §2

human IL-23 [5] = molecular target: T1, human IL-23; experiment: competition ELISA (ECL): 0.01 nM biotinylated hIL-23 pre-incubated with varied mutein, free hIL-23 captured on coated soluble hIL-23R (competitor)
Experimental: All incubation steps were performed with shaking 300 rpm, and the plate was washed after each incubation step with 80 μl PBS/0.05% Tween 20 for five times using a Biotek ELx405 select CW washer. […] After washing, the receptor-coated wells were blocked with 60 μl PBS-T/BSA for 1 h at room temperature.
After washing, 60 μl MSD Read Buffer T (2×) was added to each well and the plate was read within 15 min.

human IL-12p40 [6] = molecular target: T3, human IL-12p40 (human, UniProt P29460 23-328); experiment: solution competition ELISA, 10 nM SEQ ID NO: 9, plate with biotinylated hIL-23
T3 construct: also called hIL-12p40
T3 sequence (looked up): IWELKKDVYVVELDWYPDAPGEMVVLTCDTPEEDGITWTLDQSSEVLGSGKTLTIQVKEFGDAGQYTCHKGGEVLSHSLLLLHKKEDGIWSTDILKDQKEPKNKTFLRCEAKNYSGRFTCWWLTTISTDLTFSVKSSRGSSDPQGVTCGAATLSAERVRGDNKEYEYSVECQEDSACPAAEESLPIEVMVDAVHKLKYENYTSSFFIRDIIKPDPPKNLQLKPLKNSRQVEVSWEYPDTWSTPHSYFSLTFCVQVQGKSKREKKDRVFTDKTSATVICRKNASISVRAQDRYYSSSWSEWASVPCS
Experimental: as §3

human IL-12p40 [7] = molecular target: T3, human IL-12p40; experiment: solution competition ELISA, 1 nM SEQ ID NO: 10, plate with biotinylated hIL-23
Experimental: as §3

human IL-23 [8] = molecular target: T1, human IL-23; experiment: cell-based or functional assay
human IL-23 [9] = molecular target: T1, human IL-23; experiment: Surface Plasmon Resonance, legend of FIG. 6C (rounded value of the measurement of the example)
Experimental: as §1, §2

mouse IL-23 [10] = molecular target: T2, mouse IL-23; experiment: solution competition ELISA (FIG. 5A)
Experimental: as §3

Binder	Kd (human IL-23 [1])	koff (human IL-23 [1])	kon (human IL-23 [1])	koff (human IL-23 [2])	kon (human IL-23 [2])	binding result (mouse IL-23 [3])	Kd (human IL-23 [4])	IC50 (human IL-23 [5])	binding result (human IL-12p40 [6])	binding result (human IL-12p40 [7])	EC50 [nM] AVERAGE, hIL-23-induced proliferation of Ba/F3 cells expressing hIL-23R and hIL-12Rβ1 (human IL-23 [8])	EC50 [nM] Exp 1, hIL-23-induced proliferation of Ba/F3 cells expressing hIL-23R and hIL-12Rβ1 (human IL-23 [8])	EC50 [nM] Exp 2, hIL-23-induced proliferation of Ba/F3 cells expressing hIL-23R and hIL-12Rβ1 (human IL-23 [8])	EC50 [nM] Exp 3, hIL-23-induced proliferation of Ba/F3 cells expressing hIL-23R and hIL-12Rβ1 (human IL-23 [8])	EC50 [nM] Exp 4, hIL-23-induced proliferation of Ba/F3 cells expressing hIL-23R and hIL-12Rβ1 (human IL-23 [8])	Kd (human IL-23 [9])	binding result (mouse IL-23 [10])
lipocalin mutein SEQ ID NO: 9 (designed binder, Human NGAL (lipocalin 2) mutein specific for IL-23p19) QDSTSDLIPAPPLSKVPLQQNFQDNQFHGKWYVVGMAGNLMLREDKDPTKMSATIYELKEDKSYNVTWVDFRFKKCKYQIGTFVPGSQPGEFTLGGIKSMPGMTSFLVRVVSTNYNQHAMVFFKYVYQNREYFEITLYGRTKELTSELKENFIRFSKSLGLPENHIVFPVPIDQCIDG	135 nM	0.00063 s⁻¹	4700 M⁻¹ s⁻¹	0.00063 s⁻¹	4650 M⁻¹ s⁻¹	binds	135 nM	119 nM	no binding (tested: ligand up to 1000 nM)	–	–	–	–	–	–	–	–
lipocalin mutein SEQ ID NO: 10 (designed binder, Human NGAL (lipocalin 2) mutein specific for IL-23p19) QDSTSDLIPAPPLSKVPLQQNFQDNQFHGKWYVVGLAGNTILREDKDPDKMEATIYELKEDKSYNVTSVDFIMKKCWYFITTFVPGSQPGEFTLGHIKSMPGMTSFLVRVVSTNYNQHAMVFFKYVYQNREFFEITLYGRTKELTSELKENFIRFSKSLGLPENHIVFPVPIDQCIDG	11.5 nM	0.00048 s⁻¹	42000 M⁻¹ s⁻¹	0.000598 s⁻¹	36300 M⁻¹ s⁻¹	–	–	1.9 nM	–	no binding (tested: ligand up to 1000 nM)	332 nM	515 nM	199 nM	316 nM	296 nM	11 nM	binds
